According to paper doi:10.1101/2021.03.08.434320:

Target: H3K9me2 peptide (ITC)
Experiment: ITC

fold decrease of binding in pH 6.0 against pH 7.5: 5 fold
stoichiometry N: 1
Substance: Arabidopsis thaliana AGDP3 AGD1-4 (1-290) (domain or fragment)
